Reference: PMC8678608, “A Novel Bispecific Antibody Targeting PD-L1 and VEGF With Combined Anti-Tumor Activities” (Frontiers in Immunology, 2021)

Columns and labels:
human VEGF165 protein [1] = target: T1, human VEGF165 protein (human); assay: SPR; Biacore 8K, 25 °C; antibody or fusion protein captured by anti-human IgG (Fc) on a CM5 chip; analyte (VEGF165 from 3 nM or PD-L1 from 50 nM, 2-fold titrations) injected 120 s, dissociation 1800 s, 30 μL/min; single-cycle kinetics, 1:1 model; no enhancement step (buffer); details: both partners purified
T1 construct: human VEGF-A, the 165-residue isoform VEGF165; also called VEGF dimer; source: bought: Sino Biological Inc. (11066-HNAH)

human VEGF165 protein [2] = target: T1, human VEGF165 protein; assay: ELISA; plates coated with recombinant human PD-L1 or VEGF165 (100 ng/well, carbonate buffer); antibody 1 h at room temperature; detected with HRP goat anti-human Fc, TMB, 450 nm; details: both partners purified
human PD-L1 [3] = target: T2, human PD-L1 (Homo sapiens (Human)., UniProt Q9NZQ7); assay: SPR; as a1, but 10 nM human VEGF165 injected first to saturate VEGF binding by captured HB0025, then PD-L1 as analyte; details: both partners purified
T2 construct: human PD-L1, recombinant; also called PD-L1 monomer; programmed cell death-ligand 1; source: bought: ACRO Biosystems (449-9AWF1-RA)

human PD-L1 [4] = target: T2, human PD-L1; assay: SPR; valence: HB0025 (300 RU), HB0023 (250 RU) or HB002.1T (200 RU) captured; 200 nM PD-L1 injected twice for 60 s, then 10 nM VEGF165 twice for 60 s; stoichiometric ratio from response units and molecular weights; running buffer pH 7.4; details: both partners purified
human PD-L1 [5] = target: T2, human PD-L1; assay: cell-based or functional assay
human PD-L1 [6] = target: T2, human PD-L1; assay: SPR; Biacore 8K, 25 °C; antibody or fusion protein captured by anti-human IgG (Fc) on a CM5 chip; analyte (VEGF165 from 3 nM or PD-L1 from 50 nM, 2-fold titrations) injected 120 s, dissociation 1800 s, 30 μL/min; single-cycle kinetics, 1:1 model; no enhancement step (buffer); details: both partners purified
human PD-L1 [7] = target: T2, human PD-L1; assay: ELISA; plates coated with recombinant human PD-L1 or VEGF165 (100 ng/well, carbonate buffer); antibody 1 h at room temperature; detected with HRP goat anti-human Fc, TMB, 450 nm; details: both partners purified

T2 sequence (Q9NZQ7 19-238): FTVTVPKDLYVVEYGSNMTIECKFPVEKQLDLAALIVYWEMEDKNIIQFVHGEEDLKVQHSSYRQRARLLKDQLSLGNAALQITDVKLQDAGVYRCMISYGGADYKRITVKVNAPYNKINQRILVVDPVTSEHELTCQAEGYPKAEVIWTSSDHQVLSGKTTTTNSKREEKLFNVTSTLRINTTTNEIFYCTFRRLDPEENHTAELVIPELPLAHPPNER

B1: HB002.1T (VEGFR1D2-Ig fusion protein) (Fc fusion)
chain: SDTGRPFVEMYSEIPEIIHMTEGRELVIPCRVTSPNITVTLKKFPLDTLIPDGKRIIWDSRKGFIISNATYKEIGLLTCEATVNGHLYKTNYLTHRQTNTIID
modifications: Fc-dimerised fusion: D2 at the N-terminus of IgG Fc, with Fc and any linker left out. Limits are inferred from HB0025 numbering, assuming HB002.1T has the same D2. N36/N68 and the N99-T100 cleavage …
For B1, the Kd (human VEGF165 protein [1]) was 0.00111 nM, the koff (human VEGF165 protein [1]) was 5.03e-05 s⁻¹ and the kon (human VEGF165 protein [1]) was 4.54e+07 M⁻¹ s⁻¹. For the same binder, the EC50 (human VEGF165 protein [2]) was 0.17 nM.

B2: HB0025 (anti-PD-L1/VEGFR1D2-Ig fusion protein) (bispecific antibody, V domains shown)
VH: QVQLVQSGAEVKKPGASVKVSCKASGYAFTGYTIHWVRQAPGQRLEWMGWFYPGSGTLKYSEKFQGRVTITRDKSLSTAYMELSSLRSEDTAVYYCARHGTGTLMAMDYWGQGTLVTVSS
VL: DVVMTQTPLSLSVTPGQPASISCKSSQSLANSYGNTYLSWYLHKPGQSPQLLIYGISNRFSGVPDRFSGSGSGTDFTLKISRVEAEDVGVYYCLQGTHQPPTFGQGTKLEIK
notes: soluble extracellular domain 2 of human VEGF receptor 1 (VEGFR1D2); humanized VH of the parent anti-PD-L1 antibody HB0023; human IgG1 heavy constant domains, as in the heavy chain of HB0023; IgG1-like mAb-Trap format; Clinical trial NCT04678908; also called bispecific antibody; BsAb; copies: 2 +
In the case of B2, the Kd (human PD-L1 [3]) is reported as 1.98 nM, the koff (human PD-L1 [3]) is reported as 0.000395 s⁻¹ and the kon (human PD-L1 [3]) is reported as 200000 M⁻¹ s⁻¹. The “stoichiometry N” value (human PD-L1 [4]) was about 1.7 PD-L1 monomers per HB0025, the “EC50 of the recovery of IL-2 secretion in a mixed lymphocyte reaction (DCs and PBMCs, 3.8 pM-25 nM antibody); blocks PD-1/PD-L1” value (human PD-L1 [5]) was about 509 pM and the Kd (human PD-L1 [6]) was 1.76 nM. For the same binder, the koff (human PD-L1 [6]) was 0.00051 s⁻¹, the kon (human PD-L1 [6]) was 290000 M⁻¹ s⁻¹ and the EC50 (human PD-L1 [7]) was 0.67 nM.
